Several values for one entry are separate records, joined by “and”; a condition that tells them apart may be missing. Equal values may be shown once. Bridges are numbered along the chain shown (N, C = ends). [ ]: non-standard residue; d: D form. N3 = N-terminal azide group, clicked with Pra; Pra = C#CC[C@H](N)C(=O)O; Sar = CNCC(=O)O
T1: β-catenin (UniProt P35222 134-665, limits assumed, biotinylated in the SPR and plate assays)
T1 sequence (looked up): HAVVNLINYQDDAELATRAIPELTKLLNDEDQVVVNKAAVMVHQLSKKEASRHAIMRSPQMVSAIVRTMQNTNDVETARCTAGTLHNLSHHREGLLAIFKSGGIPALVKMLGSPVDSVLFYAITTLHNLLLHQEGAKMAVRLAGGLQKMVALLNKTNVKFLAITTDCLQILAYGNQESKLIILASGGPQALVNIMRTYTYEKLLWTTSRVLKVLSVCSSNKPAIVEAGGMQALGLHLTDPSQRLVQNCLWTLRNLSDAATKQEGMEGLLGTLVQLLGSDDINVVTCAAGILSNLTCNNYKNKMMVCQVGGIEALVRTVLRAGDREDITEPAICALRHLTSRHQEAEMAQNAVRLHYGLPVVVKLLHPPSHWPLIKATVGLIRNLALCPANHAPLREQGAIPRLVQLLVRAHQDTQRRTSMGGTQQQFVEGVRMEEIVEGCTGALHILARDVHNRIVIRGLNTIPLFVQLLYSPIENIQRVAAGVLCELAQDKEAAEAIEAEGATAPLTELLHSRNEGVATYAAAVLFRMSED

B1: SEQ ID NO: 33 (peptide)
peptide: N3-WESILDEHVQRVW[Pra]-NH2
modifications: triazole N-14
B2: SEQ ID NO: 178 (peptide)
peptide: DWFLICAWKG
HELM: PEPTIDE1{D.W.F.L.I.C.A.W.K.G}$PEPTIDE1,PEPTIDE1,1:R3-9:R3$$$V2.0
SMILES: CC[C@H](C)[C@@H]1NC(=O)[C@H](CC(C)C)NC(=O)[C@H](Cc2ccccc2)NC(=O)[C@H](Cc2c[nH]c3ccccc23)NC(=O)[C@@H](N)CC(=O)NCCCC[C@@H](C(=O)NCC(=O)O)NC(=O)[C@H](Cc2c[nH]c3ccccc23)NC(=O)[C@H](C)NC(=O)[C@H](CS)NC1=O
B3: SEQ ID NO: 208 (peptide)
peptide: KWFEISFWG
HELM: PEPTIDE1{K.W.F.E.I.S.F.W.G}$PEPTIDE1,PEPTIDE1,1:R3-4:R3$$$V2.0
SMILES: CC[C@H](C)[C@H](NC(=O)[C@@H]1CCC(=O)NCCCC[C@H](N)C(=O)N[C@@H](Cc2c[nH]c3ccccc23)C(=O)N[C@@H](Cc2ccccc2)C(=O)N1)C(=O)N[C@@H](CO)C(=O)N[C@@H](Cc1ccccc1)C(=O)N[C@@H](Cc1c[nH]c2ccccc12)C(=O)NCC(=O)O
B4: SEQ ID NO: 166 (peptide)
peptide: H-MIRMWFLICAWG-OH
B5: SEQ ID NO: 180 (peptide)
peptide: KMWFLICEWG
HELM: PEPTIDE1{K.M.W.F.L.I.C.E.W.G}$PEPTIDE1,PEPTIDE1,1:R3-8:R3$$$V2.0
SMILES: CC[C@H](C)[C@@H]1NC(=O)[C@H](CC(C)C)NC(=O)[C@H](Cc2ccccc2)NC(=O)[C@H](Cc2c[nH]c3ccccc23)NC(=O)[C@H](CCSC)NC(=O)[C@@H](N)CCCCNC(=O)CC[C@@H](C(=O)N[C@@H](Cc2c[nH]c3ccccc23)C(=O)NCC(=O)O)NC(=O)[C@H](CS)NC1=O
B6: SEQ ID NO: 139 (peptide)
peptide: H-[2Aoc]WFLICFWG-OH
B7: SEQ ID NO: 205 (peptide)
peptide: KWXLISAWD
HELM: PEPTIDE1{K.W.[CC(C)(C)[C@H](N[*:1])C(=O)[*:2]].L.I.S.A.W.D}$PEPTIDE1,PEPTIDE1,1:R3-9:R3$$$V2.0
SMILES: CC[C@H](C)[C@@H]1NC(=O)[C@H](CC(C)C)NC(=O)[C@H](C(C)(C)C)NC(=O)[C@H](Cc2c[nH]c3ccccc23)NC(=O)[C@@H](N)CCCCNC(=O)C[C@@H](C(=O)O)NC(=O)[C@H](Cc2c[nH]c3ccccc23)NC(=O)[C@H](C)NC(=O)[C@H](CO)NC1=O
B8: SEQ ID NO: 31 (peptide)
peptide: KMSRMWYLISFW
HELM: PEPTIDE1{K.M.S.R.M.W.Y.L.I.S.F.W}$PEPTIDE1,PEPTIDE1,1:R3-12:R2$$$V2.0
SMILES: CC[C@H](C)[C@@H]1NC(=O)[C@H](CC(C)C)NC(=O)[C@H](Cc2ccc(O)cc2)NC(=O)[C@H](Cc2c[nH]c3ccccc23)NC(=O)[C@H](CCSC)NC(=O)[C@H](CCCNC(=N)N)NC(=O)[C@H](CO)NC(=O)[C@H](CCSC)NC(=O)[C@@H](N)CCCCNC(=O)[C@H](Cc2c[nH]c3ccccc23)NC(=O)[C@H](Cc2ccccc2)NC(=O)[C@H](CO)NC1=O
B9: SEQ ID NO: 173 (peptide)
peptide: KWFLICEWG
HELM: PEPTIDE1{K.W.F.L.I.C.E.W.G}$PEPTIDE1,PEPTIDE1,1:R3-7:R3$$$V2.0
SMILES: CC[C@H](C)[C@@H]1NC(=O)[C@H](CC(C)C)NC(=O)[C@H](Cc2ccccc2)NC(=O)[C@H](Cc2c[nH]c3ccccc23)NC(=O)[C@@H](N)CCCCNC(=O)CC[C@@H](C(=O)N[C@@H](Cc2c[nH]c3ccccc23)C(=O)NCC(=O)O)NC(=O)[C@H](CS)NC1=O
B10: SEQ ID NO: 177 (peptide)
peptide: DMWFLICFWKG
HELM: PEPTIDE1{D.M.W.F.L.I.C.F.W.K.G}$PEPTIDE1,PEPTIDE1,1:R3-10:R3$$$V2.0
SMILES: CC[C@H](C)[C@@H]1NC(=O)[C@H](CC(C)C)NC(=O)[C@H](Cc2ccccc2)NC(=O)[C@H](Cc2c[nH]c3ccccc23)NC(=O)[C@H](CCSC)NC(=O)[C@@H](N)CC(=O)NCCCC[C@@H](C(=O)NCC(=O)O)NC(=O)[C@H](Cc2c[nH]c3ccccc23)NC(=O)[C@H](Cc2ccccc2)NC(=O)[C@H](CS)NC1=O
B11: SEQ ID NO: 187 (peptide)
peptide: KWFLISAWE
HELM: PEPTIDE1{[ac].K.W.F.L.I.S.A.W.E}$PEPTIDE1,PEPTIDE1,2:R3-10:R3$$$V2.0
SMILES: CC[C@H](C)[C@@H]1NC(=O)[C@H](CC(C)C)NC(=O)[C@H](Cc2ccccc2)NC(=O)[C@H](Cc2c[nH]c3ccccc23)NC(=O)[C@@H](NC(C)=O)CCCCNC(=O)CC[C@@H](C(=O)O)NC(=O)[C@H](Cc2c[nH]c3ccccc23)NC(=O)[C@H](C)NC(=O)[C@H](CO)NC1=O
B12: SEQ ID NO: 213 (peptide)
peptide: H-MWFLICFW[Sar]-OH
B13: SEQ ID NO: 203 (peptide)
peptide: KWALISAWD
HELM: PEPTIDE1{K.W.[Cha].L.I.S.A.W.D}$PEPTIDE1,PEPTIDE1,1:R3-9:R3$$$V2.0
SMILES: CC[C@H](C)[C@@H]1NC(=O)[C@H](CC(C)C)NC(=O)[C@H](CC2CCCCC2)NC(=O)[C@H](Cc2c[nH]c3ccccc23)NC(=O)[C@@H](N)CCCCNC(=O)C[C@@H](C(=O)O)NC(=O)[C@H](Cc2c[nH]c3ccccc23)NC(=O)[C@H](C)NC(=O)[C@H](CO)NC1=O
B14: SEQ ID NO: 206 (peptide)
peptide: KWLLISAWD
HELM: PEPTIDE1{K.W.L.L.I.S.A.W.D}$PEPTIDE1,PEPTIDE1,1:R3-9:R3$$$V2.0
SMILES: CC[C@H](C)[C@@H]1NC(=O)[C@H](CC(C)C)NC(=O)[C@H](CC(C)C)NC(=O)[C@H](Cc2c[nH]c3ccccc23)NC(=O)[C@@H](N)CCCCNC(=O)C[C@@H](C(=O)O)NC(=O)[C@H](Cc2c[nH]c3ccccc23)NC(=O)[C@H](C)NC(=O)[C@H](CO)NC1=O
B15: SEQ ID NO: 201 (peptide)
peptide: KWFLIAFWE
HELM: PEPTIDE1{K.W.F.L.I.A.F.W.E}$PEPTIDE1,PEPTIDE1,1:R3-9:R3$$$V2.0
SMILES: CC[C@H](C)[C@@H]1NC(=O)[C@H](CC(C)C)NC(=O)[C@H](Cc2ccccc2)NC(=O)[C@H](Cc2c[nH]c3ccccc23)NC(=O)[C@@H](N)CCCCNC(=O)CC[C@@H](C(=O)O)NC(=O)[C@H](Cc2c[nH]c3ccccc23)NC(=O)[C@H](Cc2ccccc2)NC(=O)[C@H](C)NC1=O
B16: SEQ ID NO: 222 (peptide)
peptide: Ac-MWILISFWG-OMe
B17: SEQ ID NO: 200 (peptide)
peptide: KWFLIAFWE
HELM: PEPTIDE1{[ac].K.W.F.L.I.A.F.W.E}$PEPTIDE1,PEPTIDE1,2:R3-10:R3$$$V2.0
SMILES: CC[C@H](C)[C@@H]1NC(=O)[C@H](CC(C)C)NC(=O)[C@H](Cc2ccccc2)NC(=O)[C@H](Cc2c[nH]c3ccccc23)NC(=O)[C@@H](NC(C)=O)CCCCNC(=O)CC[C@@H](C(=O)O)NC(=O)[C@H](Cc2c[nH]c3ccccc23)NC(=O)[C@H](Cc2ccccc2)NC(=O)[C@H](C)NC1=O
B18: SEQ ID NO: 202 (peptide)
peptide: KWFLISAWD
HELM: PEPTIDE1{K.W.F.L.I.S.A.W.D}$PEPTIDE1,PEPTIDE1,1:R3-9:R3$$$V2.0
SMILES: CC[C@H](C)[C@@H]1NC(=O)[C@H](CC(C)C)NC(=O)[C@H](Cc2ccccc2)NC(=O)[C@H](Cc2c[nH]c3ccccc23)NC(=O)[C@@H](N)CCCCNC(=O)C[C@@H](C(=O)O)NC(=O)[C@H](Cc2c[nH]c3ccccc23)NC(=O)[C@H](C)NC(=O)[C@H](CO)NC1=O
B19: SEQ ID NO: 210 (peptide)
peptide: H-MAFLISFWG-OH
B20: SEQ ID NO: 211 (peptide)
peptide: H-MWFLICAWG-OH
B21: SEQ ID NO: 181 (peptide)
peptide: KWFLICEWG
HELM: PEPTIDE1{K.W.F.L.I.C.E.W.G}$PEPTIDE1,PEPTIDE1,1:R3-7:R3$$$V2.0
SMILES: CC[C@H](C)[C@@H]1NC(=O)[C@H](CC(C)C)NC(=O)[C@H](Cc2ccccc2)NC(=O)[C@H](Cc2c[nH]c3ccccc23)NC(=O)[C@@H](N)CCCCNC(=O)CC[C@@H](C(=O)N[C@@H](Cc2c[nH]c3ccccc23)C(=O)NCC(=O)O)NC(=O)[C@H](CS)NC1=O
B22: SEQ ID NO: 174 (peptide)
peptide: KWFLICFWEG
modifications: cyclo-H2N-K(G*)WFLICFWE*G-COOH

Target: T1, β-catenin
Test: cell-based or functional assay

Row | Binder | Wnt Reporter EC50
1 | B1 | > 30 µM
2 | B2 | ≤ 7.5 µM
3 | B3 | > 7.5 µM and ≤ 15 µM
4 | B4 | > 30 µM
5 | B5 | ≤ 7.5 µM
6 | B6 | > 30 µM
7 | B7 | > 30 µM
8 | B8 | > 30 µM
9 | B9 | > 30 µM
10 | B10 | > 7.5 µM and ≤ 15 µM
11 | B11 | > 7.5 µM and ≤ 15 µM
12 | B12 | ≤ 7.5 µM
13 | B13 | > 7.5 µM and ≤ 15 µM
14 | B14 | > 15 µM and ≤ 22.5 µM
15 | B15 | > 22.5 µM and ≤ 30 µM
16 | B16 | > 7.5 µM and ≤ 15 µM
17 | B17 | ≤ 7.5 µM
18 | B18 | > 22.5 µM and ≤ 30 µM
19 | B19 | ≤ 7.5 µM
20 | B20 | ≤ 7.5 µM
21 | B21 | > 30 µM
22 | B22 | > 7.5 µM and ≤ 15 µM
